Patent US20230192860A1 (Bristol-Myers Squibb, published 2023)
Positions count from the first letter of the chain named.

B1: P1-061029.IgG1.3 (antibody)
heavy: EVQLVESGGGLVQPGKSLRLSCAASGFTLDDYAMHWVRQAPGKGLEWVSGINWNSANIGYADSVKGRFTISRDNAKNSLYLQMNSLRTEDTALYYCAKVPGYSGGWIDAFDVWGQGTMVTVSSASTKGPSVFPLAPSSKSTSGGTAALGCLVKDYFPEPVTVSWNSGALTSGVHTFPAVLQSSGLYSLSSVVTVPSSSLGTQTYICNVNHKPSNTKVDKRVEPKSCDKTHTCPPCPAPEAEGAPSVFLFPPKPKDTLMISRTPEVTCVVVDVSHEDPEVKFNWYVDGVEVHNAKTKPREEQYNSTYRVVSVLTVLHQDWLNGKEYKCKVSNKALPAPIEKTISKAKGQPREPQVYTLPPSREEMTKNQVSLTCLVKGFYPSDIAVEWESNGQPENNYKTTPPVLDSDGSFFLYSKLTVDKSRWQQGNVFSCSVMHEALHNHYTQKSLSLSPG
light: not shown
notes: IgG1.3; also called P1-061029 (parent); P1-061029-18
B2: P1-068761.IgG1.3 (antibody)
heavy: B1 heavy with D30E, Y32E, A56E, N57E, G104H, F110E
light: not shown
notes: IgG1.3; also called P1-068761-20; P1-068761 hIgG1.3f

Assays:
[1] = molecular target: T1, monovalent hVISTA-ECD (amino acids 32-193 of SEQ ID NO: 1 with a 7xHis tail) (human, UniProt Q9H7M9 33-193); assay: SPR 37C, pH 7.4 over pH 6.0
T1 construct: analyte of the SPR assays; also called huVISTA-His; human VISTA-ECD
T1 sequence (Q9H7M9 other isoform, or with tags, fused parts or gaps limits assumed): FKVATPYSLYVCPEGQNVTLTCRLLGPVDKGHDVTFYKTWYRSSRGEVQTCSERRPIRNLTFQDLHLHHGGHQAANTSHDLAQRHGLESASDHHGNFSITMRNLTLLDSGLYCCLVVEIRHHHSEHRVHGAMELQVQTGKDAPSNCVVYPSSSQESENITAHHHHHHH
Procedure: Human VISTA binding kinetics of P1-061029 (“ ‘029”), P1-068761 (“ ‘761”) and P1-068767 (“ ‘767”) (as IgG1.3 antibodies) were measured at pH values between pH 7.4 and pH 6.0, i.e., at pH 6.9 and pH 6.45 using a Biacore® T100 instrument (GE Healthcare). […] Antibodies were diluted to 25 nM in PBST pH 7.4, and were captured across active biosensor flow cells at 5 ul/min for 45 seconds. A concentration series of 100 - 0.78 nM monovalent hVISTA-ECD (SEQ ID NO: 325) was prepared pH 7.4, 6.9, 6.45 and 6.0 running buffers, and was injected over the captured antibodies at 40 ul/min to measure association and dissociation. Two 15 second injections of 10 mM glycine pH 1.5 were used to regenerate the Protein A capture surface between assay cycles. Rate constants ka (kₒₙ) and kd (koff) were derived from reference flow cell and 0 nM blank-subtracted sensorgrams, and were fit to a 1:1 binding model in Biacore® T200 Evaluation Software v.2.0. The affinity constant, KD was calculated as the ratio of rate constants koff/kₒₙ for each VISTA antibody. Ratios of koff and KD at each pH relative to pH 6.0 were calculated to evaluate how the VISTA koff and KD change as the buffer pH shifts to physiological, and are shown in Table 7. […] As the buffer pH shifts from acidic to physiological, VISTA koff and KD both weaken for ‘761 and ‘767. […]

[2] = molecular target: T1, monovalent hVISTA-ECD (amino acids …); assay: SPR, Ab on Protein A, hVISTA 100-7.8 nM, pH 7.4
Procedure: Further binding kinetic experiments were performed at various pHs on VISTA antibodies described herein by SPR as generally described in Example 9 above. Antibodies were normalized to 50 nM concentration in PBST pH 7.4 and captured on a Protein A CM5 chip (ID 4931) by injecting for 45 seconds at a 5 µL/min flow rate. An 8-point human VISTA titration ([…]) was prepared in PBST at pH 7.4, 6.9, 6.45, and 6.0. Titrations were injected over the captured antibodies for 180 seconds at 30 µL/min. Sensorgrams were fit to a 1:1 binding model in T200 evaluation software and the kinetic constants were reported.

[3] = molecular target: T1, monovalent hVISTA-ECD (amino acids …); assay: SPR 37C, Ab on Protein A, hVISTA-ECD 50-0.2 nM, pH 6.0
Procedure: Surface plasmon resonance (SPR) analysis was performed to measure the association rates (defined as ka or kₒₙ, 1/Ms units), dissociation rates (defined as kd or koff, s⁻¹ units) and affinity constants (defined as KD, M units) for VISTA Abs at acidic and physiological pHs using a Biacore® T200 instrument (GE Healthcare). […] Antibodies were diluted to 20 nM in PBST pH 7.4, and were captured across active biosensor flow cells at 5 ul/min for 50 seconds. A concentration series of 50 - 0.2 nM monovalent hVISTA-ECD (SEQ ID NO: 325) was prepared in pH 7.4 and 6.0 running buffers, and was injected over the captured antibodies at 40 ul/min to measure association and dissociation. Two 15 second injections of 10 mM glycine pH 1.5 were used to regenerate the Protein A capture surface between assay cycles. Rate constants kₐ (kₒₙ) and kd (kₒff) were derived from reference flow cell and 0 nM blank-subtracted sensorgrams, and were fit to a 1:1 binding model in Biacore® T200 Evaluation Software v.2.0.

[4] = molecular target: T1, monovalent hVISTA-ECD (amino acids …); assay: SPR 37C, Ab on Protein A, hVISTA-ECD 50-5 nM, pH 7.4, average
Procedure: Binding of several preparations of each of the ‘029 progeny clones and of the parent ‘029 antibodies, formatted as IgG1.3 antibodies, to human VISTA at pH 6.0 and 7.4 was measured by Surface plasmon resonance (SPR). SPR analysis was performed to measure koff and KD binding affinity measurements for VISTA Abs at acidic and neutral pHs using a Biacore® T100 instrument (GE Healthcare). […] Antibodies were diluted to 25 nM in PBST pH 7.4, and were captured across active biosensor flow cells at 5 ul/min for 60 seconds. A concentration series of 50 - 5 nM monovalent hVISTA-ECD (SEQ ID NO: 325) was prepared in pH 7.4 and 6.0 running buffers, and was injected over the captured antibodies at 40 ul/min to measure association and dissociation. Two 15 second injections of 10 mM glycine pH 1.5 were used to regenerate the Protein A capture surface between assay cycles. Rate constants ka (kₒₙ) and kd (koff) were derived from reference flow cell and 0 nM blank-subtracted sensorgrams, and were fit to a 1:1 binding model in Biacore® T200 Evaluation Software v.2.0. The affinity constant, KD was calculated as the ratio of rate constants koff/kₒₙ for each VISTA antibody.

[5] = molecular target: T1, monovalent hVISTA-ECD (amino acids …); assay: SPR 37C, pH 7.4 * over pH 6.0

KD ratio to pH 6.0 [1]	koff ratio to pH 6.0 [1]	Kd [2]	koff [2]	kon [2]	koff [3]	Kd [4]	koff [4]	kon [4]	KD ratio to pH 6.0 [5]	koff ratio to pH 6.0 [5]	Binder
13.2	1.1	13 nM	0.00603 s⁻¹	463000 M⁻¹ s⁻¹	0.0048 s⁻¹	19 nM	0.0056 s⁻¹	290000 M⁻¹ s⁻¹	–	–	B1
–	–	–	–	–	–	–	–	–	~10000	~63.6	B2
